Experimental data as given in a protein production outcome set (Wang et al. 2014).

Assay: label from the status in PepcDB records
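Further: failed if final PepcDB status was selected cloned or expressed and not failed if soluble or beyond.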

Row | Sequence | protein production
1 | MSWWQDMDQRGGVSSPSGALASAEPAPASVTLAELLHLVQKGQEVPGLEKRHITATHGEPTASLLPRRPKPWEDAGSAASPCTIALDTRTQPPTIEERSRGSPAAQLDGGPRVS | failed
2 | MDYKKTNAPSNTVTRDMMDLCADTGNIYETVAIIGKRANQISVEMKNDLSKKLQEFASYNDNLEEVFENREQIEISRYYEKLPKPTLIAAQEYEEGKVYFRNPAKEKEKLQ | not failed
3 | DDNNAAEVDRQVAQDSAEPKTGENAAAGDSSSTNKNAEKIVAVDISAETEKTYLTHVANDMVIPAYADAAKQSDLLHDLAQKHCQKAPVSGDELQALRDQWLVLAQAWASAEMVNFGPATASMSNLYINYYPDERGLVHGGVADLITANPALTAEQLANESAVVQGIPGLEEALYANDSLDAGQCAYVMSASSALGTRLKDIEKNWQQNAIKLLAIDKTAESDQGLNQWFNSLLSLVETMKSNAIEQPLGLSGKAKGHLPAATAGQSRAIINAKLATLNKAMTDPVLTAILGSNNENTVADTLSTALADTTALLAQMPEDLATADKATQQELYDHLTNITRLIKSQLIPTLGIRVGFNSTDGD | not failed
4 | MRLNHNSYEIFDFMRSRSAIGVLSKIIITIPPINLRMIIGVMGPEGSYSERAAKLWARKNGLRGAEFHYFADIEDAFLAAVGGKTDISVVPVENSIEGSVGVTLDLLLENEAVIIGEIVVKIEHCLLSKGEPEKIRVILSHPQGLAQCRHFLKTHFPEAELRSTGSTSHAARLAGEFEEMAAIASPEAAERYGLKILLSNVQDRKENHTRFIVVRGGEKVLSGKIKGKADSGEKLNTVFGRNAEHKLCSETETGTENSSSYAFKTSLIVYLEKDRPGALYEPLGFFAKRGINLTKIESRPSKKELGDYYFYIDLEGNISDVLIKDALEDIKSKASKKSRSSTLKVLGSYPAFKK | failed
5 | MNGQAKTISASAKGIPQPSNNNFVDFTMSYNGTTKVMSITYGGQTWTQNVSSFIGTNQAMSFSIAASTGAQMNLQQLRNVNFTYTVAQGTVIANYVDEQGNTIAQQETTSGDIDTPYVTSQKTIPGYTFKASNGAATSGNYAANDQTVNYVYTRNQGSIDVTYIDQTTGQTLSKKDLSGGTGDSSNYTTTDTIKSYTDAGYELVSDNYPSGGTVFTDTAQHYVVNLKQKLVVSSEQKQVNETIQYVYEDGSKAADDYNAPPLNFTRSVTTNQVTGEKTYGDWQAQNGDSFGEVVSPTIKGETADQLKIDAISGITANSADIQKKVVYKRNQGTIDVTYIDETTGQVLTKKDLSGGTDDPSNYTTADDIKSYTDKGYELVSDDYPSGGTVFTDEPQHYVVKLKHGLTESTDKKAVNQVIHYVYEGGGEAATDHNATVDFSRTITTDRVTNDKTYGDWTADNGDSFASVTSPVIDGYTADQLKVSEMTGITADTEDISVTVTYTRNQGTIDITYIDQTTGQTLSKKDLSGGTGDDSGYTTADTIKSYTDKGYELISDDYPEDGTKFADDPQHYIVRLKHGLTEVTENKTVNQVIHYVYEGGGEAATDHNATVVFSQTITTDKVTGEKTYSDWTADNGDSFASVTSPVIDGYTADQLKVSEMTGITVDTEDISVTVTYTRNQGTIDVTYIDETTGKILTTKDLSGGTGDDSGYTTADTIKSYTDKGYELVSNDYPEDGTKFADDPQHYIVRLKHGTVVETENKSVNEVIHYVYDNGDKAADNYKATIVFSRTITTDKVTGEKTYSDWTADNGGRFAAVLSPIIKDYIASQLKVDEMTGITVDTADIERIVVYHKVPAGIIVPPVHPDKPSQPSNNQSKIPTAKAVKDSKPTDVLPSTGDSQKSQIVLTLLGIMAVIISPLALLLRRRKQ | failed
6 | MHTDTERCVRAVQSKDARFDGWFFTAVLTTGIYCRPSCPVVPPKPGNMTFYPSAAACQQAGFRACKRCRPDTSPGSPEWNRRADLTARAMRLIADGVVDREGVPGLASRLGYSTRQVERQLLAELGAGPLALARAQRAQTARLLIETTPLPMADIAFAAGFSSIRTFNDTVREVYALSPSELRTRAPRNRRAATAPGALSLRLPFRAPLNPDNLFGHLAATAVPGVEEWRDGAYRRTLRLPYGHGIVALTPNPDHIACRLTLSDLRDLTVAISRCRRLLDLDADPTAIDDQLRADPLLAPLVDKAPGRRVPRTVDEAEFAVRAVLGQQVSTAAARTHAARLVTAHGDPVDDPEGGLTHLFPSTEALAAVDPETLAMPRTRRTTFTTLVAHLADGSVNPGVESDWAETRARLLALPGFGPWTADVIAMRALGDPDAFLPTDLGIRRAAAELGLPSTPAALTARAAAWRPWRAYAVQYLWATDDHPINFLPV | failed
